Test results taken from patent US7432061B2, “Assays for measuring matrix metalloproteinase activities” (BioZyme, Inc., priority 2002, dated 2008).

Assays:
gelatinase B = gelatinase B (Homo sapiens, UniProt P14780); assay: Inhibition with type II collagen, FlSub3 cleavage; assay type: biochemical; settings: for Average Percent Inhibition: GELB(.008 nM)
Procedure: (§1) In a 96 well plate, collagenase 3 (0.013 nM), collagenase 1 (1.25 nM), stromelysin 1 (0.8 nM), gelatinase A (0.025 nM), or gelatinase B (0.008 nM) were reacted with 20 uM FlSub3 in standard assay buffer in the presence of varying concentrations of bovine type II collagen (0.18-44 ug/ml). The type II collagen, a 1 mg/ml stock in 0.5M acetic acid, was transferred into assay buffer by passing the material through a biospin P6 column from Amersham. The reaction was initiated by addition of substrate to enzyme containing either buffer or an appropriate amount of type II collagen. Data points were taken every 15 min over a period of 15 hours using an excitation and emission wavelength of 350 and 485 nm respectively. The usable data (1-6 hours), was taken and the percent inhibition by type II collagen was calculated for each enzyme and plotted as a function of inhibitor concentration and time in the assay. It should be noted that the percent inhibition varies with time as the bovine substrate is consumed during the reaction course.

collagenase 3 = collagenase 3 (Homo sapiens, UniProt P45452); assay: Inhibition with type II collagen, FlSub3 cleavage; assay type: biochemical; settings: for Average Percent Inhibition from 1.1 to 6.6 Hours / Average Percent Inhibition: COL3(.013 nM)
Procedure: as §1

[1] = TypeIICOL(15 ug/ul), FISb3, hour 3.10 to 4.10
[2] = TypeIICOL(15 ug/ul), FISb3, hour 4.10 to 5.10
[3] = TypeIICOL(15 ug/ul), FISb3, hour 5.10 to 6.10
[4] = TypeIICOL(44 ug/ul), FISb3, hour 0.10 to 1.10
[5] = TypeIICOL(44 ug/ul), FISb3, hour 1.10 to 2.10
[6] = TypeIICOL(44 ug/ul), FISb3, hour 1.10 to 6.60
[7] = TypeIICOL(44 ug/ul), FISb3, hour 2.10 to 3.10
[8] = TypeIICOL(44 ug/ul), FISb3, hour 3.10 to 4.10
[9] = TypeIICOL(44 ug/ul), FISb3, hour 4.10 to 5.10
[10] = TypeIICOL(44 ug/ul), FISb3, hour 5.10 to 6.10
[11] = TypeIICOL(.18 ug/ul), FISb3, hour 0.10 to 1.10
[12] = TypeIICOL(.18 ug/ul), FISb3, hour 1.10 to 2.10
[13] = TypeIICOL(.18 ug/ul), FISb3, hour 1.10 to 6.60
[14] = TypeIICOL(.18 ug/ul), FISb3, hour 2.10 to 3.10
[15] = TypeIICOL(.18 ug/ul), FISb3, hour 3.10 to 4.10
[16] = TypeIICOL(.18 ug/ul), FISb3, hour 4.10 to 5.10
[17] = TypeIICOL(.18 ug/ul), FISb3, hour 5.10 to 6.10
[18] = TypeIICOL(.55 ug/ul), FISb3, hour 0.10 to 1.10
[19] = TypeIICOL(.55 ug/ul), FISb3, hour 1.10 to 2.10
[20] = TypeIICOL(.55 ug/ul), FISb3, hour 1.10 to 6.60
[21] = TypeIICOL(.55 ug/ul), FISb3, hour 2.10 to 3.10
[22] = TypeIICOL(.55 ug/ul), FISb3, hour 3.10 to 4.10
[23] = TypeIICOL(.55 ug/ul), FISb3, hour 4.10 to 5.10
[24] = TypeIICOL(.55 ug/ul), FISb3, hour 5.10 to 6.10

gelatinase B, sequence (P14780 94-707): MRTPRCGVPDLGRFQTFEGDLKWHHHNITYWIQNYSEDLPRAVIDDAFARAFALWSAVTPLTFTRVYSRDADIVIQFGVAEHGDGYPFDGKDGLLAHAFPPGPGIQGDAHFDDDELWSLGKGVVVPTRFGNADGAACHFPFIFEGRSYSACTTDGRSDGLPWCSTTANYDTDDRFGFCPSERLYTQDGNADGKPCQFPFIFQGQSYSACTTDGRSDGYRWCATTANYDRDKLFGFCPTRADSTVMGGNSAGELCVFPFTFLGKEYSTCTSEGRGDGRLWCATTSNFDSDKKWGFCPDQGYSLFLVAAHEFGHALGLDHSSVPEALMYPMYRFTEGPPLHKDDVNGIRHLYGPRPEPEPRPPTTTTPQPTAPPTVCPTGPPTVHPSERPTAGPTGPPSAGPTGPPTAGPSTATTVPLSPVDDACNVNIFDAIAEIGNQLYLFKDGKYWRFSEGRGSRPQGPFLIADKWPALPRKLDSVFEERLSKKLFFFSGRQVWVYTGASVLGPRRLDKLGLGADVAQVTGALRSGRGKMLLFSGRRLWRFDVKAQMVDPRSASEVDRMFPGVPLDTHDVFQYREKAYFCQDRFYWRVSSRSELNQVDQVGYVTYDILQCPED

Type II Collagen: bovine type II collagen, full length MMP substrate used as inhibitor of gelatinases
Average Percent Inhibition (gelatinase B; [1]): 69%
Average Percent Inhibition (gelatinase B; [2]): 64%
Average Percent Inhibition (gelatinase B; [3]): 59%
Average Percent Inhibition (gelatinase B; [4]): 41%
Average Percent Inhibition (gelatinase B; [5]): 82%
Average Percent Inhibition (gelatinase B; [6]): 84%
Average Percent Inhibition (gelatinase B; [7]): 87%
Average Percent Inhibition (gelatinase B; [8]): 87%
Average Percent Inhibition (gelatinase B; [9]): 85%
Average Percent Inhibition (gelatinase B; [10]): 83%
Average Percent Inhibition (gelatinase B; [11]): 3%
Average Percent Inhibition (gelatinase B; [12]): 12%
Average Percent Inhibition (gelatinase B; [13]): 9%
Average Percent Inhibition (gelatinase B; [14]): 11%
Average Percent Inhibition (gelatinase B; [15]): 9%
Average Percent Inhibition (gelatinase B; [16]): 7%
Average Percent Inhibition (gelatinase B; [17]): 5%
Average Percent Inhibition (gelatinase B; [18]): 3%
Average Percent Inhibition (gelatinase B; [19]): 10%
Average Percent Inhibition (gelatinase B; [20]): 9%
Average Percent Inhibition (gelatinase B; [21]): 12%
Average Percent Inhibition (gelatinase B; [22]): 10%
Average Percent Inhibition (gelatinase B; [23]): 8%
Average Percent Inhibition (gelatinase B; [24]): 6%
inhibition of gelatinase B by type II collagen (gelatinase B; highest concentration (44 ug/ml), six hour time course, FlSub3): Almost complete inhibition
Average Percent Inhibition from 1.1 to 6.6 Hours (collagenase 3; Type II Collagen 0.18 ug/ml): −8%
Average Percent Inhibition from 1.1 to 6.6 Hours (collagenase 3; Type II Collagen 0.54 ug/ml): −11%
Average Percent Inhibition from 1.1 to 6.6 Hours (collagenase 3; Type II Collagen 1.63 ug/ml): −11%
Average Percent Inhibition from 1.1 to 6.6 Hours (collagenase 3; Type II Collagen 4.89 ug/ml): −28%
Average Percent Inhibition from 1.1 to 6.6 Hours (collagenase 3; Type II Collagen 14.67 ug/ml): −44%
Average Percent Inhibition from 1.1 to 6.6 Hours (collagenase 3; Type II Collagen 44.00 ug/ml): −53%
Average Percent Inhibition (collagenase 3; TypeIICOL(1.6 ug/ul), FISb3, hour 0.10 to 1.10): 16%
Average Percent Inhibition (collagenase 3; TypeIICOL(1.6 ug/ul), FISb3, hour 1.10 to 2.10): −4%
Average Percent Inhibition (collagenase 3; TypeIICOL(1.6 ug/ul), FISb3, hour 1.10 to 6.60): −11%
Average Percent Inhibition (collagenase 3; TypeIICOL(1.6 ug/ul), FISb3, hour 2.10 to 3.10): −15%
Average Percent Inhibition (collagenase 3; TypeIICOL(1.6 ug/ul), FISb3, hour 3.10 to 4.10): −13%
Average Percent Inhibition (collagenase 3; TypeIICOL(1.6 ug/ul), FISb3, hour 4.10 to 5.10): −12%
Average Percent Inhibition (collagenase 3; TypeIICOL(1.6 ug/ul), FISb3, hour 5.10 to 6.10): −11%
Average Percent Inhibition (collagenase 3; TypeIICOL(4.9 ug/ul), FISb3, hour 0.10 to 1.10): 8%
Average Percent Inhibition (collagenase 3; TypeIICOL(4.9 ug/ul), FISb3, hour 1.10 to 2.10): −31%
Average Percent Inhibition (collagenase 3; TypeIICOL(4.9 ug/ul), FISb3, hour 1.10 to 6.60): −28%
Average Percent Inhibition (collagenase 3; TypeIICOL(4.9 ug/ul), FISb3, hour 2.10 to 3.10): −38%
Average Percent Inhibition (collagenase 3; TypeIICOL(4.9 ug/ul), FISb3, hour 3.10 to 4.10): −31%
Average Percent Inhibition (collagenase 3; TypeIICOL(4.9 ug/ul), FISb3, hour 4.10 to 5.10): −25%
Average Percent Inhibition (collagenase 3; TypeIICOL(4.9 ug/ul), FISb3, hour 5.10 to 6.10): −21%
Average Percent Inhibition (collagenase 3; TypeIICOL(15 ug/ul), FISb3, hour 0.10 to 1.10): 6%
Average Percent Inhibition (collagenase 3; TypeIICOL(15 ug/ul), FISb3, hour 1.10 to 2.10): −48%
Average Percent Inhibition (collagenase 3; TypeIICOL(15 ug/ul), FISb3, hour 1.10 to 6.60): −44%
Average Percent Inhibition (collagenase 3; TypeIICOL(15 ug/ul), FISb3, hour 2.10 to 3.10): −59%
Average Percent Inhibition (collagenase 3; [1]): −50%
Average Percent Inhibition (collagenase 3; [2]): −41%
Average Percent Inhibition (collagenase 3; [3]): −34%
Average Percent Inhibition (collagenase 3; [4]): 2%
Average Percent Inhibition (collagenase 3; [5]): −55%
Average Percent Inhibition (collagenase 3; [6]): −53%
Average Percent Inhibition (collagenase 3; [7]): −71%
Average Percent Inhibition (collagenase 3; [8]): −60%
Average Percent Inhibition (collagenase 3; [9]): −49%
Average Percent Inhibition (collagenase 3; [10]): −41%
Average Percent Inhibition (collagenase 3; [11]): 6%
Average Percent Inhibition (collagenase 3; [12]): −9%
Average Percent Inhibition (collagenase 3; [13]): −8%
Average Percent Inhibition (collagenase 3; [14]): −10%
Average Percent Inhibition (collagenase 3; [15]): −8%
Average Percent Inhibition (collagenase 3; [16]): −7%
Average Percent Inhibition (collagenase 3; [17]): −6%
Average Percent Inhibition (collagenase 3; [18]): 14%
Average Percent Inhibition (collagenase 3; [19]): −11%
Average Percent Inhibition (collagenase 3; [20]): −11%
Average Percent Inhibition (collagenase 3; [21]): −15%
Average Percent Inhibition (collagenase 3; [22]): −12%
Average Percent Inhibition (collagenase 3; [23]): −10%
Average Percent Inhibition (collagenase 3; [24]): −10%
inhibition of collagenase 3 by type II collagen (collagenase 3; FlSub3): not observed
increase in specificity of collagenase 3 (factor) (collagenase 3; highest concentration of collagen, FlSb3): 2.5
effect on collagenase 3 at the highest concentrations of type II collagen (collagenase 3; highest concentrations, FlSub3): activation, rather than inhibition
